Series [1] concerns the target T1, recombinant wild type FceRIa (extracellular region of the alpha chain of the human high-affinity IgE receptor, spacer, 6His).
T1 chain: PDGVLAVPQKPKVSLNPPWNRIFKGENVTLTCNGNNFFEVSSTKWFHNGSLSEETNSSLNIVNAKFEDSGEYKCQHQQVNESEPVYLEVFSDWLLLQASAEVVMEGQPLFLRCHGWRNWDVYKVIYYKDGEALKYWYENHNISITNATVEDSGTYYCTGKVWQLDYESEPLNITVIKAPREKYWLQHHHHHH

The target in series [2] is T2, protease resistant A43-FceRIa (K43 to A43 variant of recombinant human FceRIa).
T2 chain 1: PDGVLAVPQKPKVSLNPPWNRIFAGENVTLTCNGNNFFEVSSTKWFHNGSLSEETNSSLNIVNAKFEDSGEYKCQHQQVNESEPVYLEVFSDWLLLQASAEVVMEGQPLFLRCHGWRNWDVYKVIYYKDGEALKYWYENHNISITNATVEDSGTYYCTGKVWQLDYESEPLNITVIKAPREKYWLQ
T2 chain 2: HHHHHH

Data on one protein can be found in US20190127438.

B1: plasmin (Sigma P1867) (protein)
chain: KVYLSECKTGNGKNYRGTMSKTKNGITCQKWSSTSPHRPRFSPATHPSEGLEENYCRNPDNDPQGPWCYTTDPEKRYDYCDILECEEECMHCSGENYDGKISKTMSGLECQAWDSQSPHAHGYIPSKFPNKNLKKNYCRNPDRELRPWCFTTDPNKRWELCDIPRCTTPPPSSGPTYQCLKGTGENYRGNVAVTVSGHTCQHWSAQTPHTHNRTPENFPCKNLDENYCRNPDGKRAPWCHTTNSQVRWEYCKIPSCDSSPVSTEQLAPTAPPELTPVVQDCYHGDGQSYRGTSSTTTTGKKCQSWSSMTPHRHQKTPENYPNAGLTMNYCRNPDADKGPWCFTTDPSVRWEYCNLKKCSGTEASVVAPPPVVLLPDVETPSEEDCMFGNGKGYRGKRATTVTGTPCQDWAAQEPHRHSIFTPETNPRAGLEKNYCRNPDGDVGGPWCYTTNPRKLYDYCDVPQCAAPSFDCGKPQVEPKKCPGRVVGGCVAHPHSWPWQVSLRTRFGMHFCGGTLISPEWVLTAAHCLEKSPRPSSYKVILGAHQEVNLEPHVQEIEVSRLFLEPTRKDIALLKLSSPAVITDKVIPACLPSPNYVVADRTECFITGWGETQGTFGAGLLKEAQLPVIENKVCNRYEFLNGRVQSTELCAGHLAGGTDSCQGDSGGPLVCFEKDKYILQGVTSWGLGCARPNKPGVYVRVSRFVTWIEGVMRNN
As to B1, the “plasmin cleavage, peptides in the Base Peak Chromatogram (LC-MS)” value in series [1] was “Site K43 (indicated as peptide K in FIG. 2B) of recombinant wt FceRIa was preferentially cleaved whereas plasmin cleavage sites K31, R40, K201, R199, K196 and K142 (indicated as peptide 1-8 in FIG. 2B) were cleaved to lesser extent”. For the same protein, in series [2], the “plasmin cleavage, Base Peak Chromatogram (LC-MS)” value is on record as “complete absence of a cleavage product in the mutant, protease resistant variant of recombinant A43-FceRIa (black line), whereas the wild type receptor digest peak appears at 30 min (grey line)”.
